US20260217793A1 (Chugai, published 2026)
Changes are numbered by the printed parent chain.

T1: FcγRIIa type R extracellular domain with C-terminal His tag (human, UniProt P12318 34-217)
T1 sequence (looked up): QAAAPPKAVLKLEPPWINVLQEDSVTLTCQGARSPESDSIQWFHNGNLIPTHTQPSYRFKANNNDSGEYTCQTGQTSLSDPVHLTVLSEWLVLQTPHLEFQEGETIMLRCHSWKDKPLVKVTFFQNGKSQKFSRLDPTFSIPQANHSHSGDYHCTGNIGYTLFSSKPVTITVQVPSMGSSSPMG

T2: FcγRIIb extracellular domain with C-terminal His tag (human, UniProt P31994 43-217)
T2 sequence (looked up): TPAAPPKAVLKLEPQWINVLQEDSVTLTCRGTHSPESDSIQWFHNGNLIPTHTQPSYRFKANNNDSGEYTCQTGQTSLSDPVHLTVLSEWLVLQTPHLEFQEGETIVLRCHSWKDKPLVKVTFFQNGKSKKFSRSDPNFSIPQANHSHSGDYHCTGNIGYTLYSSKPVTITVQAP

T3: human FcγRIIa type R (Arg131) extracellular domain with C-terminal His tag (human, UniProt P12318 34-217)
T3 sequence (looked up): T1 sequence (looked up)

T4: human FcγRIIb extracellular domain with C-terminal His tag (human, UniProt P31994 43-217)
T4 sequence (looked up): T2 sequence (looked up)

B1: IL6R-BP262/IL6R-L (antibody, human IgG1, kappa)
heavy: QVQLQESGPGLVKPSETLSLTCAVSGHSISHDHAWSWVRQPPGEGLEWIGFISYSGITNYNPSLQGRVTISRDNSKNTLYLQMNSLRAEDTAVYYCARSLARTTAMDYWGEGTLVTVSSASTKGPSVFPLAPSSKSTSGGTAALGCLVKDYFPEPVTVSWNSGALTSGVHTFPAVLQSSGLYSLSSVVTVPSSSLGTQTYICNVNHKPSNTKVDKKVEPKSCDKTHTCPPCPAPELLGDDSVFLFPPKPKDTLMISRTPEVTCVVVDVSEEDGEVKFNWYVDGVEVHNAKTKPREEQYNSTYRVVSVLTVLHQDWLNGKEYKCKVSNKALPAPIEKTISKAKGQPREPQVYTLPPSRDELTKNQVSLTCLVKGFYPSDIAVEWESNGQPENNYKTTPPVLDSDGSFFLYSKLTVDKSRWQQGNVFSCSVMHEALHNHYTQESLSLSP
light: not shown
B2: IL6R-BP487/IL6R-L (antibody, human IgG1, kappa)
heavy: B1 heavy with E235D, V266I, S269A, A332R, P398M
light: not shown
B3: IL6R-BP488/IL6R-L (antibody, human IgG1, kappa)
heavy: B1 heavy with E235D, V266I, S269A, Y298D, A332R
light: not shown
B4: IL6R-BP489/IL6R-L (antibody, human IgG1, kappa)
heavy: B1 heavy with E235D, V266I, S269A, Y298D, A332R, P398M
light: not shown
B5: IL6R-BP496/IL6R-L (antibody, human IgG1, kappa)
heavy: B1 heavy with E235D, V266I, S269A, Y298D
light: not shown
B6: IL6R-BP491/IL6R-L (antibody, human IgG1, kappa)
heavy: B1 heavy with V266I, S269A, Y298D, A332R
light: not shown
B7: IL6R-BP481/IL6R-L (antibody, human IgG1, kappa)
heavy: B1 heavy with E235D, V266I, S269A
light: not shown
B8: IL6R-BP494/IL6R-L (antibody, human IgG1, kappa)
heavy: B1 heavy with S269A, Y298D, A332R
light: not shown
B9: IL6R-BP483/IL6R-L (antibody, human IgG1, kappa)
heavy: B1 heavy with E235D, V268L, S269A
light: not shown
B10: IL6R-BP269/IL6R-L (antibody, human IgG1, kappa)
heavy: B1 heavy with Y298D
light: not shown
B11: IL6R-BP498/IL6R-L (antibody, human IgG1, kappa)
heavy: B1 heavy with E235D, V266I, S269A, A332R, P398L
light: not shown
B12: IL6R-BP492/IL6R-L (antibody, human IgG1, kappa)
heavy: B1 heavy with D239G, V266I, S269A
light: not shown
B13: IL6R-BP479/IL6R-L (antibody, human IgG1, kappa)
heavy: B1 heavy with E235D, V266I, V268L, S269A
light: not shown
B14: IL6R-BP497/IL6R-L (antibody, human IgG1, kappa)
heavy: B1 heavy with E235D, V266I, S269A, A329G, A332R
light: not shown
B15: IL6R-BP565/IL6R-L (antibody, human IgG1, kappa)
heavy: B1 heavy with E235D, S269A, Y298D, A332R
light: not shown
B16: IL6R-BP551/IL6R-L (antibody, human IgG1, kappa)
heavy: B1 heavy with V266I, E274D, Y298D, A332R
light: not shown
B17: IL6R-BP504/IL6R-L (antibody, human IgG1, kappa)
heavy: B1 heavy with E235D, V266I, S269A, E274P
light: not shown
B18: IL6R-BP563/IL6R-L (antibody, human IgG1, kappa)
heavy: B1 heavy with E235D, E274D, Y298D, A332R
light: not shown
B19: IL6R-BP503/IL6R-L (antibody, human IgG1, kappa)
heavy: B1 heavy with E235D, V266I, S269A, Y298D, A329G, A332R, P398M
light: not shown
B20: IL6R-BP508/IL6R-L (antibody, human IgG1, kappa)
heavy: B1 heavy with E235D, V266I, S269A, E274P, Y298D
light: not shown
B21: IL6R-BP511/IL6R-L (antibody, human IgG1, kappa)
heavy: B1 heavy with V266I, S269A, E274P, Y298D, A332R
light: not shown
B22: IL6R-BP538/IL6R-L (antibody, human IgG1, kappa)
heavy: B1 heavy with V266I, A332R
light: not shown
B23: IL6R-BP540/IL6R-L (antibody, human IgG1, kappa)
heavy: B1 heavy with V266I, E274P, Y298D, A332R
light: not shown
B24: IL6R-BP502/IL6R-L (antibody, human IgG1, kappa)
heavy: B1 heavy with E235D, V266I, S269A, Y298D, A329G, A332R
light: not shown
B25: IL6R-BP536/IL6R-L (antibody, human IgG1, kappa)
heavy: B1 heavy with E235D, V266I, Y298D, A329G, A332R, P398M
light: not shown
B26: IL6R-BP505/IL6R-L (antibody, human IgG1, kappa)
heavy: B1 heavy with E235D, V266I, S269A, E274D
light: not shown
B27: IL6R-BP509/IL6R-L (antibody, human IgG1, kappa)
heavy: B1 heavy with E235D, V266I, S269A, E274D, Y298D
light: not shown

Target: T1, FcγRIIa type R extracellular domain …
Assay: ratio of SPR KDs vs IL6R-B3/IL6R-L

Binder	KD (IIaR) of parent polypeptide/KD (IIaR) of altered polypeptide
B1	0.5
B2	28.3
B3	14.8
B4	25.7
B5	2.3
B6	9.3
B7	2.8
B8	4.3
B9	0.8
B10	0.5
B11	21.7
B12	1.2
B13	1.2

Target: T2, FcγRIIb extracellular domain with …
Assay: ratio of SPR KDs vs IL6R-B3/IL6R-L

Binder	KD (IIb) of parent polypeptide/KD (IIb) of altered polypeptide
B1	25.8
B2	2700
B3	1680
B4	3100
B14	764
B7	160
B8	471
B9	39.7
B10	27.4
B12	131
B13	55.5

Target: T3, human FcγRIIa type R (Arg131) …
Assay: SPR

Binder	KD (IIaR) of parent polypeptide/KD (IIaR) of altered polypeptide
B15	4.8
B16	4.5
B17	2.4
B18	2.4
B19	19.4
B20	2
B21	6.3
B22	5.4
B23	5.2
B24	10.1
B25	13.9
B26	2.6
B27	2.1

Target: T4, human FcγRIIb extracellular domain with …
Assay: SPR

Binder	KD (IIb) of parent polypeptide/KD (IIb) of altered polypeptide
B15	565
B16	482
B17	128
B18	196
B19	1810
B20	149
B21	891
B22	587
B23	541
B24	840
B25	1040
B26	145
B27	174

Target: T2, FcγRIIb extracellular domain with …
Assay: ratio of SPR KDs, FcγRIIaH over FcγRIIb, same variant

Binder	KD (IIaH)/KD (IIb)
B1	375
B2	730
B4	870
B5	201
B14	236
B6	724
B7	350
B8	821
B10	637
B11	564
B13	268

Target: T2, FcγRIIb extracellular domain with …
Assay: ratio of SPR KDs, FcγRIIaR over FcγRIIb, same variant

Binder	KD (IIaR)/KD (IIb)
B1	17
B3	40.1
B5	25.5
B14	21
B6	38.8
B7	20.5
B9	16.8
B10	19.6
B11	30.8
B13	16.1

Target: human FcγRIIIa type V (Val158) extracellular domain with C-terminal His tag (human, UniProt P08637 17-208)
Sequence (P08637 17-208 F176V): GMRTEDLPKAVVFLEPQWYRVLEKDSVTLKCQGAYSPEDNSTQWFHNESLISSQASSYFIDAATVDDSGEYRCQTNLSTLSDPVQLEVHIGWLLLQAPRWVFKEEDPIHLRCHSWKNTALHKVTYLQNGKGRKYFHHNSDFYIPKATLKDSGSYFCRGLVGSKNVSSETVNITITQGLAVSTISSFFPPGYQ
Assay: SPR

Binder	Kd
B15	21 µM
B16	48 µM
B18	38 µM
B22	33 µM
B23	39 µM
B25	23 µM
